Among the data in patent US20200338203A1 (Bicycle, published 2020) are Ki and Kd values, retold here.

The labels stand for the following.
B1: Compound 12 (peptide)
peptide: ACPWGPAWCPVNRPGCA
modifications: N-terminal Fl-G-Sar5 before the entry (5(6)-carboxyfluorescein, Gly, five sarcosines); three Cys cyclised on TBMB
notes: bicyclic peptide, fluorescent

Numbered stars: 1 amine (or outer) side, 2 acyl side, 3 side chain; on linkers, the order of the positions; unused ones are H or OH. Bridge positions count the residues as written; N and C are the ends. Square brackets hold non-standard residues; d marks the D form. Primed or numbered codes have the meaning given here. Ends that are not written are not given here. K(Fl)″ = lysine labelled with carboxyfluorescein; K(Fl) = Lys carrying 5(6)-carboxyfluorescein; 1Nal = N[C@@H](Cc1cccc2ccccc12)C(=O)O; TBMB = c1c(C[*:1])cc(C[*:3])cc1C[*:2]; Gly(cPent) = N[C@H](C(=O)O)C1CCCC1; hArg = N=C(N)NCCCC[C@H](N)C(=O)O; Tle = CC(C)(C)[C@H](N)C(=O)O; AF488 = AlexaFluor488 label; Aib = CC(C)(N)C(=O)O; βAla = NCCC(=O)O; Sar = CNCC(=O)O

T6 sequence (P29317 24-537): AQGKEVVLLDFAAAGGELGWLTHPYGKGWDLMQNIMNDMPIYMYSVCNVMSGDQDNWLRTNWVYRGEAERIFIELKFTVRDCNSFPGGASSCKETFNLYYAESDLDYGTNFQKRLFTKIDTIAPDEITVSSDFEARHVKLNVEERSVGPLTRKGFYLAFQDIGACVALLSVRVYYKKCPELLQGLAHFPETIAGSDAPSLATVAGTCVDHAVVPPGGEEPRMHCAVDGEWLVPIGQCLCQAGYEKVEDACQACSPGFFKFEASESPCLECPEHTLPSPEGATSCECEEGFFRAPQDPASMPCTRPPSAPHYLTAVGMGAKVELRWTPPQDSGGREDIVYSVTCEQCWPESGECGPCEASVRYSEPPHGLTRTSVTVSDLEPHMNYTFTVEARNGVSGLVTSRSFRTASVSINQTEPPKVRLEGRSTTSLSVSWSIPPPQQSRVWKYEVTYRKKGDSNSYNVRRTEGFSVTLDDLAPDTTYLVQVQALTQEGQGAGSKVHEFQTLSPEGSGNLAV

In one assay the target is T1, Human EphA2 (Ecto) (Human, UniProt P29317 24-537).
T1 construct: extracellular domain
T1 sequence (P29317 24-537): as above
Nature of the assay: FP competition; competitor Compound 18.
Regarding Ac-[Sar][Sar]A[dD][Gly(cPent)]VTCPWGPFWCPVNRPGC (linker 8-15-22 via TBMB) [Compound 163], the Ki (in general, the dissociation constant of the complex between target and ligand, obtained from inhibition or displacement) is 1.33 nM.
In the case of Ac-[Sar][Sar]H[dD]VPCPWGPFWCPVNRPGC (linker 7-14-21 via TBMB) [Compound 225], the Ki was 1 nM.
Still for that read-out and setting: the result for Ac-[Sar][Sar]A[dD]VTCPWGPFWCPVNRPGC (linker 7-14-21 via TBMB) [Compound 158] reads 2.05 nM.

The next assay deals with T2, Mouse EphA2 (Ecto) (Mouse, UniProt Q03145 26-538).
T2 construct: extracellular domain; not shown: Fc fusion or C-terminal polyHis
T2 sequence (Q03145 26-538): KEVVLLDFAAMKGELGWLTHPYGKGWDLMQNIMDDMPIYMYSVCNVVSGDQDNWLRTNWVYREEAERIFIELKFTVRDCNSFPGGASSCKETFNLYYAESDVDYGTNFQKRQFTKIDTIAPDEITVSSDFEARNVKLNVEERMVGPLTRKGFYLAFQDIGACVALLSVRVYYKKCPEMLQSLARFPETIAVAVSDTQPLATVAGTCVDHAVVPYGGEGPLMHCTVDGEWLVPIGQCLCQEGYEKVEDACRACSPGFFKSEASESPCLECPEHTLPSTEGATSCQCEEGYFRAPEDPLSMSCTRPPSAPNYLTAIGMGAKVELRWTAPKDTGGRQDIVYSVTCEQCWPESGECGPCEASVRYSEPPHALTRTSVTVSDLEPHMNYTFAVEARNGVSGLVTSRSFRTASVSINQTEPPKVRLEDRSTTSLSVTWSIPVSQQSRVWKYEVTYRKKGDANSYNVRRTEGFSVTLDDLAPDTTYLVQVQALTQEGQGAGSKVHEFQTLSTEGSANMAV
Nature of the assay: FP competition; competitor Compound 18.
Consider Ac-[Sar][Sar]A[dD][Gly(cPent)]VTCPWGPFWCPVNRPGC (linker 8-15-22 via TBMB) [Compound 163], for which the Ki was 1.74 nM.
Ac-[Sar][Sar]H[dD]VPCP[1Nal]G[Aib]F[1Nal]CP[Tle]NR[Aib]GC (linker 7-14-21 via TBMB) [Compound 262]: the Ki stood at 0.72 nM.
On the same count and under the same terms, the value for Ac-[Sar][Sar]H[dD]VPCPWGPFWCPVNRPGC (linker 7-14-21 via TBMB) [Compound 225] was 2.08 nM; that for Ac-[Sar][Sar]A[dD]VTCPWGPFWCPVNRPGC (linker 7-14-21 via TBMB) [Compound 158] was 2.2 nM.

The next assay deals with T1, Human EphA2 (Ecto). Nature of the assay: FP competition; competitor Compound 18. The source holds these as a separate data set.
As for Ac-[Sar][Sar]H[dD]VPCP[1Nal]G[Aib]F[1Nal]CP[Tle]NR[Aib]GC (linker 7-14-21 via TBMB) [Compound 262], the Ki amounted to 0.71 nM.

The next assay has as its target T3, Human EphA1 (Human, UniProt P21709 26-547).
T3 construct: extracellular domain; also called EphA1 (Ecto), Human
T3 sequence (looked up): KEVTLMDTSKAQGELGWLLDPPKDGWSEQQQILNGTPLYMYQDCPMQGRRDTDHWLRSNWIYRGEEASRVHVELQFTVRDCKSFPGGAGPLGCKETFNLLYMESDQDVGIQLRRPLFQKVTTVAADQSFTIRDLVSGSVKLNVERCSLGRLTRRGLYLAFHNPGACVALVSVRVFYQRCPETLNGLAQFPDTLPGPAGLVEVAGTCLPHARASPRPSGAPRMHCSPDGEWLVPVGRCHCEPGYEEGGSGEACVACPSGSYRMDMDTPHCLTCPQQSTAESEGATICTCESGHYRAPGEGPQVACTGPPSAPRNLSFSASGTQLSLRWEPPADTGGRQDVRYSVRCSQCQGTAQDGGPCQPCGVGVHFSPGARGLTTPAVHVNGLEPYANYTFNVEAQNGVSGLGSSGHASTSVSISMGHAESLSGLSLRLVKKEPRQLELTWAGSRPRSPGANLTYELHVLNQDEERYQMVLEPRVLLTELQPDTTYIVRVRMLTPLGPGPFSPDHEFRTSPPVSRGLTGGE
Nature of the assay: FP direct binding, selectivity. The method, then: (§1) The gain used for analysis was determined for each tracer at the end of the 60 minutes where there was no protein in the well. Data was analysed using Systat Sigmaplot version 12.0. mP values were fit to a user defined quadratic equation to generate a Kd value: f=ymin+(ymax−ymin)/Lig*((x+Lig+Kd)/2-sqrt((((x+Lig+Kd)/2)\hat{ }2)−(Lig*x))). “Lig” was a defined value of the concentration of tracer used.
Take ACMNDWLCSLGWTCA[Sar][Sar][Sar][Sar][Sar][Sar]-{K(Fl)} (linker 2-8-14 via TBMB) [Compound 1]: the Kd (in general, the equilibrium constant for the complex coming apart) was 1640 nM.
On the same count and under the same terms, the value for {AF488-βAla}-[Sar][Sar][Sar][Sar][Sar][Sar][Sar][Sar][Sar][Sar]H[dD]VPCP[1Nal]G[Aib]F[1Nal]CP[Tle]NR[Aib]GC (linker 15-22-29 via TBMB) [Compound 144] was 1710 nM; that for ACPWGPFWCPVNRPGCA (N-terminal Fl-G-Sar5 before the entry; three Cys cyclised on TBMB, bicyclic peptide, fluorescent) [Compound 66] was 1180 nM.

Another assay deals with T4, rat EphB1 (Rat, UniProt P09759 18-540).
T4 construct: extracellular domain; also called EphB1 (Ecto), Rat
T4 sequence (looked up): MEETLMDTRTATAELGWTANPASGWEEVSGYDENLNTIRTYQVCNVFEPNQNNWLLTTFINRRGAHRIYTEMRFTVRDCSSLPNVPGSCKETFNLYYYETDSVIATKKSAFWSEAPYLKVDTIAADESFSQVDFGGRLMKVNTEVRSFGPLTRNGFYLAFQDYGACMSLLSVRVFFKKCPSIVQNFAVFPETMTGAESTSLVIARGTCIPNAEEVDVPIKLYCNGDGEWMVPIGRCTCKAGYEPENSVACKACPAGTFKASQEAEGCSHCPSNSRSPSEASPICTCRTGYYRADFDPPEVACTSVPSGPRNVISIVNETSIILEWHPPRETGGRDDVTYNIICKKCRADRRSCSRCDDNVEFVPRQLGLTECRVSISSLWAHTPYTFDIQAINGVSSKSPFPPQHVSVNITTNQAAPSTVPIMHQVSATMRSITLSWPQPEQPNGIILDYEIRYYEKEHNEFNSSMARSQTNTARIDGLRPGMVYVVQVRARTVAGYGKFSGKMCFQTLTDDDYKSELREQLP
Put plainly: FP direct binding, selectivity. As for the experimental part:
as §1
{AF488-βAla}-[Sar][Sar][Sar][Sar][Sar][Sar][Sar][Sar][Sar][Sar]H[dD]VPCP[1Nal]G[Aib]F[1Nal]CP[Tle]NR[Aib]GC (linker 15-22-29 via TBMB) [Compound 144] showed a Kd of 1440 nM.
The same measure, in the same setting: the value for ACPWGPFWCPVNRPGCA (N-terminal Fl-G-Sar5 before the entry; three Cys cyclised on TBMB, bicyclic peptide, fluorescent) [Compound 66] was 2270 nM.

For another assay, the target named is dog EphA2 (Dog, UniProt A0A286R219 28-206). Nature of the assay: FP direct binding, selectivity. As for the experimental part: as §1
For the molecule ACPWGPFWCPVNRPGC (N-terminal AlexaFluor488-G-Sar5 before the entry; three Cys cyclised on TBMB, bicyclic peptide, fluorescent) [Compound 67], the Kd came to 61.4 nM.

For another assay, the target named is rat EphA2 (Rat, UniProt D3ZBN3 27-205). Nature of the assay: FP direct binding, selectivity. As for the experimental part: as §1
Regarding ACPWGPFWCPVNRPGC (N-terminal AlexaFluor488-G-Sar5 before the entry; three Cys cyclised on TBMB, bicyclic peptide, fluorescent) [Compound 67], binding was characterised by a dissociation constant (Kd) of 26.5 nM.
On the same count and under the same terms, the value for {AF488-βAla}-[Sar][Sar][Sar][Sar][Sar][Sar][Sar][Sar][Sar][Sar]H[dD]VPCP[1Nal]G[Aib]F[1Nal]CP[Tle]NR[Aib]GC (linker 15-22-29 via TBMB) [Compound 144] was 1.25 nM; that for {AF488-βAla}-[Sar][Sar][Sar][Sar][Sar][Sar][Sar][Sar][Sar][Sar]H[dD]VPC[Aib][1Nal]G[Aib]F[1Nal]CP[Tle]N[hArg]P[dD]C (linker 15-22-29 via TBMB) [Compound 140] was 1.57 nM.

In another assay the target is T5, mouse EphA2 (Mouse, UniProt Q03145 26-538).
T5 construct: extracellular domain; C-terminal polyHis; also called EphA2 (Ecto), Mouse
T5 sequence (Q03145 26-538): as the sequence (Q03145 26-538) above
Nature of the assay: FP direct binding, selectivity. As for the experimental part:
as §1
On to {AF488-βAla}-[Sar][Sar][Sar][Sar][Sar][Sar][Sar][Sar][Sar][Sar]H[dD]VPCP[1Nal]G[Aib]F[1Nal]CP[Tle]NR[Aib]GC (linker 15-22-29 via TBMB) [Compound 144], for which the Kd stood at 2.56 nM.
The same measure, in the same setting: the result for B1 reads 55.5 nM.
On the same count and under the same terms, the result for ACLVNDDCFYMGLCA[Sar][Sar][Sar][Sar][Sar][Sar]-{K(Fl)″} (linker 2-8-14 via TBMB, bicyclic peptide, fluorescent) [Compound 23] reads 386 nM; that for {AF488-βAla}-[Sar][Sar][Sar][Sar][Sar][Sar][Sar][Sar][Sar][Sar]H[dD]VPC[Aib][1Nal]G[Aib]F[1Nal]CP[Tle]N[hArg]P[dD]C (linker 15-22-29 via TBMB) [Compound 140], 4.55 nM.

The next assay concerns the target T6, Human EphA2 (Human, UniProt P29317 24-537).
T6 construct: extracellular domain; also called EphA2 (Ecto), Human
Nature of the assay: FP competition; competitor: fluorescent Compound 66. As for the experimental part: (§2) Peptides without a fluorescent tag were tested in competition with a peptide with a fluorescent tag and a known Kd (Table 2). Peptides were diluted to an appropriate concentration in assay buffer as described in the direct binding assay with a maximum of 5% DMSO, then serially diluted 1 in 2. Five μL of diluted peptide was added to the plate followed by 10 μL of human or mouse EphA2 (Table 1) at a fixed concentration which was dependent on the fluorescent peptide used (Table 2), then 10 μL fluorescent peptide added. Measurements were conducted as for the direct binding assay, however the gain was determined prior to the first measurement.
With [Sar][Sar]ACPWGPFWCPVNRP[dA]C (linker 4-11-18 via TBMB, bicyclic peptide) [Compound 112], the Ki was determined as 110 nM.

In the next assay the target is T1, Human EphA2 (Ecto). Nature of the assay: FP direct binding.
With {AF488-βAla}-[Sar][Sar][Sar][Sar][Sar][Sar][Sar][Sar][Sar][Sar]H[dD]VPCP[1Nal]G[Aib]F[1Nal]CP[Tle]NR[Aib]GC (linker 15-22-29 via TBMB) [Compound 144], the Kd came to 1.04 nM. This counts as single-digit nanomolar.
Still for that read-out and setting: the value for {AF488-βAla}-[Sar][Sar][Sar][Sar][Sar][Sar][Sar][Sar][Sar][Sar]H[dD]VPC[Aib][1Nal]G[Aib]F[1Nal]CP[Tle]N[hArg]P[dD]C (linker 15-22-29 via TBMB) [Compound 140] was 2.05 nM.

The next assay has as its target T2, Mouse EphA2 (Ecto). Nature of the assay: FP direct binding.
{AF488-βAla}-[Sar][Sar][Sar][Sar][Sar][Sar][Sar][Sar][Sar][Sar]H[dD]VPCP[1Nal]G[Aib]F[1Nal]CP[Tle]NR[Aib]GC (linker 15-22-29 via TBMB) [Compound 144] gave a Kd of 2.56 nM.
{AF488-βAla}-[Sar][Sar][Sar][Sar][Sar][Sar][Sar][Sar][Sar][Sar]H[dD]VPC[Aib][1Nal]G[Aib]F[1Nal]CP[Tle]N[hArg]P[dD]C (linker 15-22-29 via TBMB) [Compound 140] returned a Kd of 4.55 nM.

A further assay deals with Human & mouse EphA3 (Human & mouse) (UniProt P29320). Put plainly: FP direct binding, selectivity.
Human & mouse EphA3 (Human & mouse), sequence (P29320 21-541): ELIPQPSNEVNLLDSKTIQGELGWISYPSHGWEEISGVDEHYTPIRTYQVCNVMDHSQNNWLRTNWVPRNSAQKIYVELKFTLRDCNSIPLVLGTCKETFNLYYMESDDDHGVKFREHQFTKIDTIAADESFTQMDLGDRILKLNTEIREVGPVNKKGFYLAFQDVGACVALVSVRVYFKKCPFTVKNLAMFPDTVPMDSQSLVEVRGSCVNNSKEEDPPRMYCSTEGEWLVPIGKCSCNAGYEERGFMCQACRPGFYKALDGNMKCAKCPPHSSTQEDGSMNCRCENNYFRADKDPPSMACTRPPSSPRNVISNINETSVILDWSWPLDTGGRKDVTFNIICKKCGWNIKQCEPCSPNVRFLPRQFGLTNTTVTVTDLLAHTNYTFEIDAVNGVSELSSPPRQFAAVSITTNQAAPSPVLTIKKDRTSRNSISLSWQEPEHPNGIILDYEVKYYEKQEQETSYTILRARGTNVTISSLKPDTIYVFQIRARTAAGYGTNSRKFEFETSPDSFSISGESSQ
Turning to {AF488-βAla}-[Sar][Sar][Sar][Sar][Sar][Sar][Sar][Sar][Sar][Sar]H[dD]VPCP[1Nal]G[Aib]F[1Nal]CP[Tle]NR[Aib]GC (linker 15-22-29 via TBMB) [Compound 144], the Kd came out at 166 nM.
In turn, {AF488-βAla}-[Sar][Sar][Sar][Sar][Sar][Sar][Sar][Sar][Sar][Sar]H[dD]VPC[Aib][1Nal]G[Aib]F[1Nal]CP[Tle]N[hArg]P[dD]C (linker 15-22-29 via TBMB) [Compound 140] gave a Kd of 3690 nM.

The next assay deals with dog EphA2 (Dog). Put plainly: FP direct binding, selectivity.
As for {AF488-βAla}-[Sar][Sar][Sar][Sar][Sar][Sar][Sar][Sar][Sar][Sar]H[dD]VPCP[1Nal]G[Aib]F[1Nal]CP[Tle]NR[Aib]GC (linker 15-22-29 via TBMB) [Compound 144], the Kd stood at 4.39 nM.
As to {AF488-βAla}-[Sar][Sar][Sar][Sar][Sar][Sar][Sar][Sar][Sar][Sar]H[dD]VPC[Aib][1Nal]G[Aib]F[1Nal]CP[Tle]N[hArg]P[dD]C (linker 15-22-29 via TBMB) [Compound 140], the Kd came to 8.7 nM.

The next assay has as its target T6, Human EphA2. Nature of the assay: FP competition; competitor: fluorescent Compound 18. The method, then: as §2
Regarding [Sar][Sar]ACPWGPFWCPVNRP[dA]C (linker 4-11-18 via TBMB, bicyclic peptide) [Compound 112], the inhibition constant Ki was found to be 89 nM.
